This note sets out measurements from publication PMC8810934.

The experiment has as its target F-actin in live HEK293T cells (human (endogenous in HEK293T)) (UniProt P60709). Description: FRET or BRET; live HEK293T cells co-transfected with ABD-mEGFP (donor) and Lifeact-mCherry (acceptor, on actin filaments); harvested 24 h after transfection; FRET efficiency from mEGFP fluorescence lifetime (time-correlated single photon counting); n = 3. (In general: BRET reads energy transfer from a luciferase to a nearby fluorophore.)

Regarding “L253P β-III-spectrin ABD fused at the C-terminus to mEGFP (domain or fragment)”, the FRET efficiency worked out at 8.4%.
